{"source": "patent US20160008398A1", "about": "“CONSTITUTIVE EXPRESSION OF COSTIMULATORY LIGANDS ON ADOPTIVELY TRANSFERRED T LYMPHOCYTES” (Memorial Sloan-Kettering Cancer Center, published 2016)", "target": "CD28 (human, UniProt P10747)", "assay": "cell-based or functional assay"}
{"binder": "CD80 (ligand) VIHVTKEVKEVATLSCGHNVSVEELAQTRIYWQKEKKMVLTMMSGDMNIWPEYKNRTIFDITNNLSIVILALRPSDEGTYECVVLKYEKDAFKREHLAEVTLSVKADFPTPSISDFEIPTSNIRRIICSTSGGFPEPHLSWLENGEELNAINTTVSQDPETELYAVSSKLDFNMTTNHSFMCLIKYGHLRVNQTFNWNTTKQEHFPDNLLPSWAITLISVNGIFVICCLTYCFAPRCRERRRNERLRRESVRPV", "values": [{"measurement": "Granzyme B recruitment to T-cell tumor cell junctions", "result": 2.2, "unit": "fold"}, {"measurement": "NF-kB-luciferase signal in single OKT3-stimulated Jurkat T cells", "result": 3.8, "unit": "fold"}, {"measurement": "expansion of CAR-transduced T cells stimulated weekly on LNCaP tumor monolayers", "result": "~2", "unit": "fold"}, {"measurement": "expansion of CMV pp65-specific T cells restimulated with HLA-A*0201^+ pp65-transduced Caco-2 cells", "result": 209, "unit": "fold"}, {"measurement": "expansion of Pz1^+ T cells cocultured weekly with LNCaP tumor monolayers", "result": 1040, "unit": "fold enrichment"}, {"measurement": "expansion of T cells stimulated weekly with plate-bound OKT3", "result": "237 fold greater proliferation"}, {"measurement": "in vivo expansion of Pz1^+ T cells in PC3-PSMA tumor bearing mice (bioluminescence)", "result": 41, "unit": "fold higher photon count"}]}
